Target: IL-3 receptor (human) (UniProt P26951)
Assay: cell-based or functional assay

Sequence of IL-3 receptor (human) (P26951 19-378, chain 1 of 2): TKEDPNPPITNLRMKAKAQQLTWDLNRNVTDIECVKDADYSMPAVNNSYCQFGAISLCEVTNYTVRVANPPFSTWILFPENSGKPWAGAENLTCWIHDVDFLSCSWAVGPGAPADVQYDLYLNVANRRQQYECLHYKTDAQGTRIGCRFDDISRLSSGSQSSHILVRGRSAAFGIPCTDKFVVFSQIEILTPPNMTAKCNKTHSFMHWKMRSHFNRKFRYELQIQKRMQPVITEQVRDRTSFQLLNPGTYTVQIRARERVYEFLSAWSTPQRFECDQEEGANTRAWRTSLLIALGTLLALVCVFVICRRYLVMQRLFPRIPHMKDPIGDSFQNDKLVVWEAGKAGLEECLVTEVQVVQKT
Sequence of IL-3 receptor (human) (P32927 17-897, chain 2 of 2, further chain): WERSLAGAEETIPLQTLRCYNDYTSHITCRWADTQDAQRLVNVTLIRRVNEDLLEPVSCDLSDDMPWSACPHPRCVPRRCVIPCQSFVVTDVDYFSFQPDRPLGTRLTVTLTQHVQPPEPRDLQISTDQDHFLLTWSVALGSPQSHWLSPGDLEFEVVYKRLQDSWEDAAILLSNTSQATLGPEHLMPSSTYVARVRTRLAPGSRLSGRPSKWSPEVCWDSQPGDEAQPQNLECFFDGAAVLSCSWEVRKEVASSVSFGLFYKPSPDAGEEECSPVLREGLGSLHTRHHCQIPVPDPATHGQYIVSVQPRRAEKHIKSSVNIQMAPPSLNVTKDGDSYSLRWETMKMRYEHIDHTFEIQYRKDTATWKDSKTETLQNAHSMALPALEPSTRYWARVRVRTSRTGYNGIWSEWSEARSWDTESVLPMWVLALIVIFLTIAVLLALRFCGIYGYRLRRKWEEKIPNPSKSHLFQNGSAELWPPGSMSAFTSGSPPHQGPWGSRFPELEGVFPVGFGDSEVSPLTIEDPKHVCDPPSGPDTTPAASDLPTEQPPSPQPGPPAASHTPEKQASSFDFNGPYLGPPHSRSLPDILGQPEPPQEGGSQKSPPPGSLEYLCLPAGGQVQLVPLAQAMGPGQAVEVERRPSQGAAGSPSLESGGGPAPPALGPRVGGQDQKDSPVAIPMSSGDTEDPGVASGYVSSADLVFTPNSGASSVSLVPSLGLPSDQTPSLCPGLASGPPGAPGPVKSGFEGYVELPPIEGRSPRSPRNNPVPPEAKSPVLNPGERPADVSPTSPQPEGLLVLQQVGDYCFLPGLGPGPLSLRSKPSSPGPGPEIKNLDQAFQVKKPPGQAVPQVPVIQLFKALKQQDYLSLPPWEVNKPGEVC

For “hIL-3 substitution mutant 1489 (Arg94→Pro94) (from UniProt P08700 20-152) (ligand)”, the REL. SPEC. BIOLOGICAL ACTIVITY (DNA synthesis of AML193 cells) (relative to reference IL-3) was 0.0017.

Source: US6500417 (DSM N V, dated 2002)
